Measured values taken from US20260193623A1 (METAGENOMI, published 2026).

B1: MG153-9 (enzyme)
chain: MESYLTQDRAEPEAGCGANSVSDTEGDGRTVQHDLVEEVVSWSNLEAALKQVVSNRGAPGVDGMTVDELGPWLETNYSELAEKVRNGRYRPNPVRRKEIPKPNGGVRDLGIPTVVDRLLQQAVSQVLMPIYEPSFSDTSYGFRPGRSAHDAIQKAKEYLSEGFGYVVDLDLARFFDTLNQDYLMNILRERVRDKALLELIKRFLRSGVVLPNGLLRETREGSPQGGPLSPLLSNIYLDRFDKLLESRGLRFVRYADDCLVFVRTPRAGERVRESVTRYLEGTLRLRVNQEKTVVGRADQVKFLGFRLYRQKTVGATVHDSSLARFRKEVRRITKRNRGTSLGSVLTELKTFTRGWVGYFRIGLSKSRAEKLDGWIRQRVRQYIFKQWKTLRNRASQLVSLCPDYLRPRPGFTPYSWVRECRRAAFSRSYWKAVNYPVVKRALSNSYLAGLGLYSLSEQLEKWNKGV
notes: Group II intron class C RT, expressed in HEK293T cells as a Flag-HA-MCP fusion (expected 72 kDa including the tag); not shown: N-terminal Flag-HA-MCP tag
B2: MG153-4 (enzyme)
chain: MDTSSLMEQILSKENLNEAYLQVVRNKGAAGVDGMSVEELGPYLSENGENIREQMRTRKYKPQPVRRVEIPKPDGGVRNLGVPTVVDRFVQQAVAQVLSPIFEEQFHDHSYGFRPNRCAQQAVLKALEMMNDGHNWIVDIDLAKFFDTVDHDKLMTIFGRTIKDGDVISLVRKFLVSGVMIDDEYEDTIVGTPQGGNISPLLANIMLNELDKELEARGLDFVRYADDLIIMVGSRQAAERVMKSVTRFIENKLGLKVNAEKSRVDKPKGIKYLGFGFYFDSFAKGYKARPHMKAVEKFKEQMKKLTCRSWGVSNTYKVKKLNQLIRGWINYFKIGSMKNLCRKLDAHIRFRLRMCIWKQWKTPKNREKNLIKLGLPRYAAHGISYAKGYARVCRSWNLHISISKERLAKFGLISMEDYYAERRVTC
notes: Group II intron class C RT, expressed in HEK293T cells as a Flag-HA-MCP fusion (expected 67.6 kDa including the tag); not shown: N-terminal Flag-HA-MCP tag

Biological target: the molecule itself
Assay: anti-HA immunoblot of lysates of transfected HEK293T cells; band at 2x the expected size (homodimer)
Procedure: FIGS. 35A-35C depict protein expression of MG153 GII derived RTs by immunoblots. Cells were transfected with plasmids containing the candidate RTs and protein expression was evaluated by immunoblot, detecting the HA peptide fused to the N termini of the RTs. All lanes were normalized to total protein concentration. White arrows point to bands at 2× the expected molecular size of the protein, which indicate protein dimers. Lanes not relevant for the described experiment in FIGS. 35A and 35B are covered by white boxes. FIG. 35C: Multiple sequence alignment of GII derived RT. The region shown corresponds to positions 196 through 201 of the alignment. The dimerization motif CAQQ (SEQ ID NO: 2267) is highlighted.
In order to understand protein expression and stability of the GII RTs in mammalian cells, immunoblots were performed. Briefly, transfected cells were lysed with RIPA lysis buffer supplemented with protease inhibitors (80 μL per well in a 24 well format). The lysate was centrifuged at 14,000 g for 10 min at 4° C. in order to remove insoluble aggregates. Proteins were quantified using BCA. […] Proteins were detected by using a rabbit HA antibody, using an HRP-based detection method. […] The expression of each protein was quantified and cDNA synthesis activity was normalized to total protein expression: seven MG153 RTs outperformed the TGIRT control (FIG. 36).

| Protein | binding result |
| --- | --- |
| B1 | binds |
| B2 | binds |
